Experimental data reported in the supplement of paper PMC9170038.

System: MS2 coat protein
Test: apparent KD of MS2 coat protein; designed switch direction (-1 OFF switch, 1 ON switch): -1; higher = weaker reporter binding
Summary of the method: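 Each step of the titration lasted 0.8–1.5 h at the lowest concentration and 10–20 min at the highest. The protein, SNAP-549-labelled MS2 coat protein, went from 0.7 or 1.5 nM doubling to 3 µM over RNA switches transcribed on Illumina chips by stalled E. coli RNA polymerase. Normalised cluster fluorescence was curve-fitted, and the per-design median over clusters is given as apparent KD.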

[1] = input ligand: microRNA oligo, concentration not stated
[2] = Eterna round: R95, input ligand: FMN 200 uM
[3] = Eterna round: R95, input ligand: microRNA oligo, concentration not stated
[4] = Eterna round: R95, input ligand: none

Row | Sequence | apparent KD of MS2 coat protein (input ligand: FMN 200 uM) [nM] | apparent KD of MS2 coat protein (input ligand: none) [nM] | apparent KD of MS2 coat protein [1] [nM] | further results
1 | AUGUGCACGCUGCGGUCCUACAUGAGGAUCACCCAUGUGGUCUGGUGGCGUGGGUCGCCGGACUUGGCUCGUCUUGA [salish99_S_TOV1_R5_029] (Eterna round: R97, puzzle: Sensor, turn-off variant 1) | 17.9 | 18.2 | – | –
2 | AUGUGUAUAGUGAGGAUAUUGCCCAGGAAAUAGGGCAAGAAGGCACAUGAGGAUCACCCAUGUGGAUGUUCUGA [Eternabot (L2) Solution 85] (Eterna round: R97, puzzle: Brourd's mod of Exclusion 4) | 412 | 37.5 | – | –
3 | AUGUUAUUGGAAGGAUAUAGUUUACUAUUCUAACAUGAGGAUCACCCAUGUAACCUUAUGUGUAUCUAGAAGGUCCAUAACUUA (Eterna round: R96, puzzle: Exclusion NG 2) | – | – | 46.4 | –
4 | AUGUUAUUGGAAGGAUAUGGUUUACUAUCCUAACAUGAGGAUCACCCAUGUAACCUUAUGUGUAUCCAGAAGGUCCAUAACUUA (Eterna round: R96, puzzle: Exclusion NG 2) | 51.9 | 32.2 | 22.8 | –
5 | AUGUUGCGAGGAUAUAUAAGGGUAUAUUCUUAAGAUAUGGAACAUGAGGAUCACCCAUGUAGAAGGUGCAUAAC [JR_Ex2_Sub043] (Eterna round: R97, puzzle: Exclusion 2) | 79.1 | 73 | – | –
6 | AUUAAAAUAUAGGAUAUCGAAUUUAUUAUUUAACGAGAAGGAUGAACAUGAGGAUCACCCAUGUGGUAUCAUGG [Mat - Exclusion 6 - JL Mod - D35] (puzzle: Exclusion 6) | – | – | – | apparent KD of MS2 coat protein [2]: 177 nM; apparent KD of MS2 coat protein [3]: 156 nM; apparent KD of MS2 coat protein [4]: 189 nM
7 | AUUAAACAUGUAGGAUAUGCGUGGCAAAGCUAUGCAGAAGGACAUGAGGAUCACCCAUGUAAAAGCGUCUGAGUACAGAUGCAA [Mat - Exclusion NG 1 - Mod of JL - D87] (Eterna round: R96, puzzle: Exclusion NG 1) | 374 | 62.9 | 61.5 | –
8 | AUUAAACAUGUAGGAUAUGCGUGGCGAAGCUAUGCAGAAGGACAUGAGGAUCACCCAUGUUUUAGCGUCUGCGUACAGAUGCAA [JL ENG1 1.38] (Eterna round: R96, puzzle: Exclusion NG 1) | 218 | 30.3 | 17.8 | –
9 | AUUAAGCAGCAGGAUAUAAGUAUCUAAAGGUGGUUAGAAGGGCUGACAUGAGGAUCACCCAUGUGCUCUUCGUG [Reusat] (puzzle: Exclusion 6) | – | – | – | apparent KD of MS2 coat protein [3]: 13.3 nM
10 | AUUAAGCAGCAGGAUAUAAUUAUCUGAAGGUGGUUAGAAGGGCUGACAUGAGGAUCACCCAUGUGCUCUUCGUG [Diries] (puzzle: Exclusion 6) | – | – | – | apparent KD of MS2 coat protein [3]: 14.7 nM
11 | AUUAAUCAGCAGGAUAUAAGUAUCUGAUGGUGGUUAGAAGGGCUGACAUGAGGAUCACCCAUGUGCUCUUCGUG [Beusbi] (puzzle: Exclusion 6) | – | – | – | apparent KD of MS2 coat protein [3]: 11.1 nM
12 | AUUAAUCAUGUAGGAUAUGCGUGGCGAAGCUAUGCAGAAGGACAUGAGGAUCACCCAUGUUCUAGCGUCUGCGUACAGAUGCUA [JL ENG1 1.37] (Eterna round: R96, puzzle: Exclusion NG 1) | 349 | 37.6 | 29.5 | –
13 | AUUAGUAAUAAGGAUAUCACUAGCCUCGGCUAGUGAGAAGGUAUUACAUGAGGAUCACCCAUGUGAUCAAUUAA [E6/3-A2] (Eterna round: R97, puzzle: Exclusion 6) | 287 | 474 | – | –
14 | AUUAUACAUGUAGGAUAUCUGCACGAUUAGUGCAGAGAAGGACAUGAGGAUCACCCAUGUAGAUCAAUAAUAAUUAAUUUAAUU [ENG1/6-B1] (Eterna round: R96, puzzle: Exclusion NG 1) | 500 | 156 | 122 | –
15 | AUUAUAUAGAAAGGAUAUAGAUUAUUAUUUUAACAUGAGGAUCACCCAUGUAGCCUUAUGUAUAACUAGAAGGUUCAUUUAUUA [Title] (Eterna round: R96, puzzle: Exclusion NG 2) | – | – | 57.9 | –
16 | AUUAUAUAGACAGGAUAUUGAUUAUUAUUUUAACAUGAGGAUCACCCAUGUAGCCUUAUGUAUAACAAGAAGGGUCAUUUAUUA [Title] (Eterna round: R96, puzzle: Exclusion NG 2) | – | – | 124 | –
17 | AUUAUAUAGUAAGGAUAUUGAUUAUUAUUUUAACAUGAGGAUCACCCAUGUAGCCUUAUGUAUAACAAGAAGGUACAUUUAUUA [Title] (Eterna round: R96, puzzle: Exclusion NG 2) | – | – | 44.5 | –
18 | AUUAUGUGAGGAUAUUAGUAGUAAAUGAAUAAAAUUAUUACUGAGAAGGCACAUGAGGAUCACCCAUGUUCCUU [Mat - Exclusion 4 - Eli Mod - D6] (Eterna round: R97, puzzle: Exclusion 4) | 155 | 18.1 | – | –

Row | Sequence | apparent KD of MS2 coat protein (input ligand: FMN 200 uM) [nM] | apparent KD of MS2 coat protein (input ligand: none) [nM] | apparent KD of MS2 coat protein [1] [nM] | further results
19 | AUUAUUACAUAGGAUAUAAAAGAGCUCACUCAGUUAGAAGGAUGUACAUGAGGAUCACCCAUGUGAUUCUGGCU [Eternabot (L2) Solution 58] (Eterna round: R97, puzzle: Exclusion 6) | 26.3 | 25.2 | – | –
20 | AUUCAUGCAGGAUAUACAUGAGGAUCACCCAUGUUAAUUUCUACAAGGCGGCAUCUAUGUAGAAGGGUAUGAAG [Eternabot (L2) Solution 33] (Eterna round: R97, puzzle: Exclusion 3) | 35.5 | 24.6 | – | –
21 | AUUCCCGGUGUUAGGAUAUCCAACGCCCACGCGAUGGAGAAGGGACAUGAGGAUCACCCAUGUAGAGCUGCAUC [Aredan] (puzzle: Brourd's mod of Exclusion 4) | – | – | – | apparent KD of MS2 coat protein [3]: 11.7 nM
22 | AUUCUCUCGGUGAGGAUAUGAGUAACGACGGCAGAUUAGAAGGUACAUGAGGAUCACCCAUGUGUGUUUGGGAU [Eternabot (L1) Solution 75] (Eterna round: R97, puzzle: Brourd's mod of Exclusion 4) | 41.7 | 47.5 | – | –
23 | AUUGACUGAGGAUAUUGUGCUGCUGACAUGAGGAUCACCCAUGUAUGUUAACUCGGCCGUCGAGAAGGCAGAAAUG [BotMod 20 - Jieux - Exclusion 5] (Eterna round: R97, puzzle: Exclusion 5) | 22.6 | 28.2 | – | –
24 | AUUGAUAUUGAGGAUAUGCUUUUAUUUGUUCUUGCAGAAGGCGAUACAUGAGGAUCACCCAUGUUUAUGGAAGU [JR_E6_Sub089] (puzzle: Exclusion 6) | – | – | – | apparent KD of MS2 coat protein [3]: 38.9 nM
25 | AUUGAUGUUGAGGAUAUGCUUAUAUUUAUACUUGCAGAAGGCGAUACAUGAGGAUCACCCAUGUUCAUGGAAGU [JR_E6_Sub092] (puzzle: Exclusion 6) | – | – | – | apparent KD of MS2 coat protein [3]: 26.2 nM
26 | AUUGAUGUUGAGGAUAUGCUUUUAUUUAUAAUAGCAGAAGGCGAUACAUGAGGAUCACCCAUGUUCAUGGUUUU [JR_E6_Sub096] (puzzle: Exclusion 6) | – | – | – | apparent KD of MS2 coat protein [3]: 24.5 nM
27 | AUUGUAGUUGUGAGGAUAUCGUUGAUUUUUUGAAACGAGAAGGCACAUGAGGAUCACCCAUGUUAGUUGUUGGU [JR_BMOE4_Sub056] (puzzle: Brourd's mod of Exclusion 4) | – | – | – | apparent KD of MS2 coat protein [3]: 65.4 nM
28 | AUUGUAUAGGAAGGAUAUAGAAUAUUAUUUUAACAUGAGGAUCACCCAUGUAACCUUAUGUGUAGCUAGAAGGUCCAUUUGUUA [Title] (Eterna round: R96, puzzle: Exclusion NG 2) | – | – | 228 | –
29 | AUUGUAUAGGAAGGAUAUAGAAUAUUAUUUUAACAUGAGGAUCACCCAUGUAACCUUAUGUGUAGCUAGAAGGUCCGUUUAUUA [Title] (Eterna round: R96, puzzle: Exclusion NG 2) | – | – | 96.5 | –
30 | AUUGUUUAUGUAGGAUAUGCCUGGCGUGCCUUUGCAGAAGGACAUGAGGAUCACCCAUGUAACAUGAGGCUCACCCUUGUCGCA [salish99_ExNG1_r04_114] (Eterna round: R96, puzzle: Exclusion NG 1) | 147 | 95.5 | 81.4 | –
31 | AUUGUUUGAUACCUCUAAUACAUGAGGAUCACCCAUGUUAUCGAGGAUAUGCAUUAGAGUGGAUAGCAGAAGGCGAAGUAAUUG [JR_ExcNG3_Sub029] (Eterna round: R96, puzzle: Exclusion NG 3) | 13.7 | 16.5 | 13.4 | –
32 | AUUGUUUUAGGAUAUACAUGAGGAUCACCCAUGUGUGCGAUGCGGAUCGGGAAAGCCUGUAGAAGGAAGACAUG [Eternabot (L1) Solution 74] (Eterna round: R97, puzzle: Exclusion 3) | 33.4 | 30.8 | – | –
33 | AUUUAAACAUAGGAUAUCGAAUUUAUUAUUUAACGAGAAGGAUGAACAUGAGGAUCACCCAUGUGGUAUCAUGG [Mat - Exclusion 6 - JL Mod - D25] (puzzle: Exclusion 6) | – | – | – | apparent KD of MS2 coat protein [2]: 693 nM; apparent KD of MS2 coat protein [3]: 815 nM; apparent KD of MS2 coat protein [4]: 260 nM
34 | AUUUAAUUUAAUAAGAUCACAUGAGGAUCACCCAUGUAUAUAUAGGAUAUCAGCUCGAAUAGAGCUGAGAAGGAUAUAUACUAU [ExNG3/7-B4] (Eterna round: R96, puzzle: Exclusion NG 3) | – | – | 276 | –
35 | AUUUAAUUUAAUAAGAUCACAUGAGGAUCACCCAUGUAUAUAUAGGAUAUCAGCUCGAUUAGAGCUGAGAAGGAUAUAUACAUG [ExNG3/8-A1] (Eterna round: R96, puzzle: Exclusion NG 3) | 48.9 | 38.1 | 21.6 | –
36 | AUUUAAUUUAAUAAGAUCACAUGAGGAUCACCCAUGUAUAUAUAGGAUAUCAGCUCGAUUAGAGCUGAGAAGGAUAUAUACUAU [ExNG3/7-B1] (Eterna round: R96, puzzle: Exclusion NG 3) | – | – | 422 | –
